Results from patent US20240131207A1, “NUCLIDE-LABELED INHIBITORY PEPTIDE, AND PREPARATION METHOD THEREFOR AND USE THEREOF” (SUZHOU UNIVERSITY, priority 2022, published 2024).
No end group written: not given here. *: point of attachment. DOTA = O=C(O)CN1CCN(CC(=O)O)CCN(CC(=O)*)CCN(CC(=O)O)CC1

How the values were obtained:
B16F10 cells [1] = assay: Growth inhibitory effect of 177Lu-AP1 on B16F10 cells (CCK8); format: cell-based, mice; conditions: radioactive dose 600 μCi/mL, incubated 24 hours, then 24 hours in normal medium
Protocol: • (1) The B16F10 cells of mice in the logarithmic growth phase were taken and digested by using pancreatin, and the cell concentration was adjusted to 4×10^4 cells/mL; the cells were plated in a 96-well plate at a volume of 100 μL per well, the cell concentration was 4×10^3 cells per well, and the cells were incubated overnight in an incubator at 37° C./5% CO2; • (2) the medium was replaced for each group of cells, 100 μL of culture solution with a specified dosage was added, and ^177LuCl3 and ^177Lu-AP1 with the same dosage concentration were added into two 96-well plates, wherein dosage concentrations were 0, 10, 100, 200, 300, 400, 500 and 600 μCi/mL; after 24 h, the normal culture medium was used to continue culturing; • (3) a culture medium with 10 μL of CCK8 solution (10%) was added at 24 h and 48 h after the normal culture medium was used, and the culture was continued in the incubator for 1 h; • (4) after 1 h, the absorbance at 450 nm of each well was measured using a microplate reader. The relative survival rate of the cells was calculated according to the measured OD value. Cell viability=(material added group−blank group)/(control group−blank group)×100%.

B16F10 cells [2] = conditions: 0-100 μg/mL
Protocol: (§1) • (1) The skin melanoma B16F10 cells of mice in the logarithmic growth phase were taken and digested by using 0.25% pancreatin, and the cell concentration was adjusted to 6×10^4/mL; the cells were plated in a 96-well plate at a volume of 100 μL per well, the cell concentration was 6×10^3 cells per well, and the cells were incubated overnight in an incubator at 37° C./5% CO2; • (2) the medium was replaced for each group of cells, and 100 μL of a culture solution with a specified concentration was added, wherein the concentration of each dose was 0, 0.5, 1, 5, 10, 20, 50 and 100 μg/mL; after 24 h, a DMEM medium (containing 10% of North American fetal bovine serum and 1% of double antibody) was used, and the culture was continued; • (3) 10 μL of CCK8 solution (10%) was added at 0 h and 24 h after the normal culture medium was used, and the culture was continued in the incubator for 1 h; • (4) after 1 h, the absorbance at 450 nm of each well was measured using a microplate reader. The relative survival rate of the cells was calculated according to the measured OD value. Cell viability=(material added group−blank group)/(control group−blank group)×100%.

in vitro = conditions: mouse, B16F10 cells
Protocol: as §1

B16F10 cells [3] = test system: B16F10 cells
Protocol: Safety of radiolabeled ^68Ga-AP1 imaging probe • (1) The B16F10 cells of mice in the logarithmic growth phase were taken and digested by using 0.25% pancreatin, and the cell concentration was adjusted to 6×10^4 cells/mL; the cells were plated in a 96-well plate at a volume of 100 μL per well, the cell concentration was 6×10^3 cells per well, and the cells were incubated overnight in an incubator at 37° C./5% CO2; • (2) the medium was replaced for each group of cells, 100 μL of a culture solution with a specified concentration was added, and the radioactive doses were taken as 0, 1, 2.5, 10, 25, 50, 100, and 200 μCi/mL; after 12 h, the normal culture medium was used and 10 μL of CCK8 solution (10%) was added, and the culture was continued in an incubator for 1 h; • (3) after 1 h, the absorbance at 450 nm of each well was measured using a microplate reader. The relative survival rate of the cells was calculated according to the measured OD value. Cell viability=(material added group−blank group)/(control group−blank group)×100%.

[4] = B16F10 tumor-bearing mouse, tail vein injection
Protocol: (§2) • (1) The ^68Ga-AP1 imaging probe was used for screening a high expression group and a low expression group of tumor ASF1a, and 20 μCi of ^68Ga-AP1 was injected into the tail vein of each mouse. After 0.5, 1.5, 3.5 and 5.5 h after injection, each important organ was dissected and separated. Each organ weight was measured and calculated as % ID/g=organ radioactivity count/(organ weight×source count)×100% for 3 mice per time point. • (2) Mice were sacrificed at 10 min, 20 min, 30 min, 1.5 h, 3.5 h, 5.5 h respectively after tail vein injection of ^68Ga-AP1, the radioactivity of the organs in the blood of the mice was measured, n=3 was measured at each time point, and the mean value of each time point was taken, and an intravascular two-compartment model was selected to fit hemodynamic parameters using PKSover software.

in vivo = conditions: mouse, tumor, iv, 20 uCi per mouse, total radioactivity, after 5.5 hours, B16F10 tumor-bearing mouse
Protocol: as §2

B16F10 cells [5] = assay: Binding and inhibition assay of B16F10 cells to 68Ga-AP1; format: cell-based, mice; conditions: 0.11 MBq/mL 68Ga-AP1 with AP1 0-360 μg/mL, 1 h
Protocol: • (1) When the cells grew to more than 90%, the cells were digested with 0.25% pancreatin, the cell concentration was adjusted to 1×10^5 cells/mL, the cells were plated in a 24-well plate, and 0.5 mL of culture medium was added to each well. […] 0.5 mL of 0.11 MBq/mL ^68Ga-AP1 was the source count T. • (5) The radioactivity of the liquid (^68Ga-AP1) detected and collected by the radioimmunotube of each concentration of AP1 was denoted as count B. • (6) The cellular uptake was B/T×100%, and the half inhibitory concentrations were fitted based on different concentrations of AP1. FIGS. 5A-5B show a competitive binding and inhibition experiment between ^68GaAP1 and AP1.

[6] = Stability analysis of 68Ga/177Lu labeled product in PBS by HPLC; format: physicochemical; conditions: within 24 hours, stability data determined with 177Lu
Protocol: • (1) The HPLC mobile phases were water and acetonitrile (each containing 0.1% TFA), and the gradient was set from 20% to 50% acetonitrile concentration over a period of 30 minutes. • (2) The injection analysis of ^68Ga/^177Lu-AP1 in PBS at different time points (0, 1.5, 3.5, and 24 h) under the same condition is shown in FIG. 2 (identification and purification of ^68Ga/^177Lu-labeled AP1 product) (The radiation peak of the product is mainly the peak of the polypeptide. Since the half-life of ^68Ga is only 68 minutes, and the amount of radiation injected is very small, the stability data is determined by ^177Lu (6.71 days) with a longer half-life).

[7] = mice, tail vein injection, two-compartment model
Protocol: as §2

[Cl][177Lu]([Cl])[Cl] [^177LuCl3]
cell survival rate after 24 hours (B16F10 cells [1]): 82.19±16.69%

{DOTA}-YGRKKRRQRRRCASTEEKWARLARRIAGAGGVTLDGFGGCA (cysteines drawn unpaired) [AP1]
biocompatibility of the polypeptide (B16F10 cells [2]): good biocompatibility
viability at 24 h, 100 µg/mL (in vitro): 94.7 ± 11%
viability at 48 h, 100 µg/mL (in vitro): 103 ± 5.76%

{DOTA}-YGRKKRRQRRRCASTEEKWARLARRIAGAGGVTLDGFGGCA-OH (N-terminus assumed; cysteines drawn unpaired) [^68Ga-AP1, metal not drawn]
biocompatibility of the PET/CT imaging probe (B16F10 cells [3]; 0-200 μCi/mL): good biocompatibility
cell survival rate (B16F10 cells [3]; radioactivity at most 200 μCi/mL): 95.31±9.05%
route of metabolism (in vivo biodistribution) [4]: mainly metabolized through liver and kidney
tissue uptake at 5.5 h (in vivo; tumor % ID/g in tumor high-intake group, high-intake group): 18.9 ± 0.248 %ID/g
tissue uptake at 5.5 h (in vivo; tumor % ID/g in tumor low-intake group, low-intake group): 5.24 ± 1.73 %ID/g
uptake in B16F10 cells inhibited by AP1 (B16F10 cells [5]): can be specifically uptaken
stability of the labeled product [6]: good stability
half-discharge time in the blood [7]: 2.1933 h
mean residence time (MRT) in vivo [7]: 3.1643 h
